Changes are numbered by the printed parent chain. Several values for one entry are separate records, joined by “and”; a condition that tells them apart may be missing. Equal entries are not always repeated. Blank lines part the entries; values can stand above or below the binder they belong to.
Legend:
human α5β1 integrin [1] = biological target: T1, human α5β1 integrin (human, UniProt P08648 42-1049; P05556 21-798); assay: FACS titration on α5β1-positive HUVEC cells, monovalent Fab
human α5β1 integrin [2] = biological target: T1, human α5β1 integrin; assay: FACS titration on α5β1-positive HUVEC cells, IgG
human α5β1 integrin [3] = biological target: T1, human α5β1 integrin; assay: cell-based or functional assay
[4] = biological target: T2, β1-integrin chain on HT29 wt cells (α5-chain negative) (human, UniProt P05556 21-798); assay: immunoprecipitation from NP40 lysate of surface-biotinylated HT29 wt cells; streptavidin-AP blot
T2 construct: whole, on cells; Negative cell control: β1 present at high density, α5 absent
T2 sequence (P05556 21-798): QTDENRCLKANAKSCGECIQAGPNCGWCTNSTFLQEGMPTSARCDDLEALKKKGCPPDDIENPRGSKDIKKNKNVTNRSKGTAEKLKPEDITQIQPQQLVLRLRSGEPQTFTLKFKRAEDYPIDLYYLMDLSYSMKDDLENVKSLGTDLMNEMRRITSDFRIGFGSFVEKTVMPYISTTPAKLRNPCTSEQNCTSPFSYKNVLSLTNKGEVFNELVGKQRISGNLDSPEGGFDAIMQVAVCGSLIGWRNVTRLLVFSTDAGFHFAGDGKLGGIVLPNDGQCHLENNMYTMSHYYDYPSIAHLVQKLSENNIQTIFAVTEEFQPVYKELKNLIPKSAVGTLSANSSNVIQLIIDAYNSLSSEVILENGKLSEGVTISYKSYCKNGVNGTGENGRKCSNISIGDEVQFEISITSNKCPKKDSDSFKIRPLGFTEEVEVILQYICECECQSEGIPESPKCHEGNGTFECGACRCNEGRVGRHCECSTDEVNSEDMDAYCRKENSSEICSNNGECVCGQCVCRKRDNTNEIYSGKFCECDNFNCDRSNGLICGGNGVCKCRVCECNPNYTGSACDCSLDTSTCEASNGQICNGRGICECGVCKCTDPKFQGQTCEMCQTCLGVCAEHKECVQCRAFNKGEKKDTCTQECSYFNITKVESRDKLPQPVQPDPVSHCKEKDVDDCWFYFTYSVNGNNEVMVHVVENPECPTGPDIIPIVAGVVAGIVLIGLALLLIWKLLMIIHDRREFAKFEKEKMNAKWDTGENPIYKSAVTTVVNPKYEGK
Method: Surface-biotinylated NP40-lysates of HT29α5 and HT29 wt were incubated with Fab coupled to magnetic Dyna beads. The immunoprecipitates were transferred to PVDF-membranes and analysed with streptavidin alkaline phosphatase (AP).
IIA1 was used as a reference antibody. After intensive washing the precipitates were boiled in SDS-PAGE sample buffer under reducing conditions, blotted to PVDF-membranes and probed with streptavidine-AP. All anti-α5β1 integrin antibodies specifically precipitated a protein double kband of […] which corresponds to the expected molecular weight of the integrin chains α5 and β1 (FIG. 11) and was not found in the HT29 wt cell lysate. The same double band was found with IIA1.

human α5β1 integrin [5] = biological target: T1, human α5β1 integrin; assay: cell-based or functional assay; remark: listed apart in the source
[6] = biological target: T2, β1-integrin chain on HT29 wt cells …; assay: FACS, HT29 cells (α5-chain negative)
human α5β1 integrin [7] = biological target: T1, human α5β1 integrin; assay: cell-based or functional assay; remark: listed apart in the source
[8] = biological target: T2, β1-integrin chain on HT29 wt cells …; assay: FACS on HT29 wt cells, labelled secondary antibody
Method: Affinity matured IgG antibodies were incubated at 10 μg/mL with 5×10⁵ HT29 wt and HT29α5 cells. Specifically bound antibodies were detected with a Cy3-labelled secondary antibody. Upper panel: IIA1 incubated with HT29 wt (left) or HT29α5-cells (right), lower panel: IgG1 MOR04974. The fluorescence shift indicates specific binding to α5 integrin and was found for MOR04975, MOR04977, MOR04985 and MOR04624 (grey area). Antibody isotype controls are negative (black lines (b)). Our anti-integrin antibodies bind to α5-chain transfected cells with the same specificity as the reference antibody IIA1.
Affinity matured antibodies of the IgG-format were tested for their binding specificity by FACS analysis on HT29 wt vs. HT29α5 cells. HT29 wt cells are α5-negative but do contain the β1-integrin chain. HT29α5 but not the HT29 wt cells are specifically recognized by the IgG1-anti-integrin antibodies and the reference antibody IIA1 as indicated by the fluorescence shift. (FIG. 12).

T1 sequence (P08648 42-1049, chain 1 of 2): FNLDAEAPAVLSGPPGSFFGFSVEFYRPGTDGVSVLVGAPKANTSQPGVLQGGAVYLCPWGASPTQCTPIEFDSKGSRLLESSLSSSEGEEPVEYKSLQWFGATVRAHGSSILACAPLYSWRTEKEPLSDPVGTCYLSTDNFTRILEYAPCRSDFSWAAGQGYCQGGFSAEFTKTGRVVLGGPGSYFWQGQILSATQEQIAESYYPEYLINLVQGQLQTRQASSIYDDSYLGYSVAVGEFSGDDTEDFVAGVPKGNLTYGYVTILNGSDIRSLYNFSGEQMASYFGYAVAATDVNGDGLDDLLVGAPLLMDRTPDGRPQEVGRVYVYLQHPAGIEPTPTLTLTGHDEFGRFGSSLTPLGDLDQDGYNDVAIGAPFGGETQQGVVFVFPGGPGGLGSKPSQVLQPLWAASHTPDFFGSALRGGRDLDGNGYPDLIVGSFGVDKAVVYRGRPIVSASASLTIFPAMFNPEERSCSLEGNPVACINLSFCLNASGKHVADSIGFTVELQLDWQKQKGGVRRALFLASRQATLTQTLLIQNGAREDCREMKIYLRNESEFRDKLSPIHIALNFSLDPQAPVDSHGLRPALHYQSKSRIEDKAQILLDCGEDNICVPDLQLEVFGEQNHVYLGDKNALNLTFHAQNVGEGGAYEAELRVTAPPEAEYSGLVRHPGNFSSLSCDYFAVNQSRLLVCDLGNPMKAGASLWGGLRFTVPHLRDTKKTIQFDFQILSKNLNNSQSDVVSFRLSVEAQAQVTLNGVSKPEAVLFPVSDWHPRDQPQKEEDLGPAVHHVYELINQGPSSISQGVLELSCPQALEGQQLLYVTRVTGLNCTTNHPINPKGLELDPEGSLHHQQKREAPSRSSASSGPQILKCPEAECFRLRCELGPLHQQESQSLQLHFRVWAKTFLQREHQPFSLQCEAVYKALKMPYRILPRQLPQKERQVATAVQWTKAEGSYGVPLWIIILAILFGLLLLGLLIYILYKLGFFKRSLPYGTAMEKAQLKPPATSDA
T1 sequence (P05556 21-798, chain 2 of 2): as the sequence (P05556 21-798) above

Kd (human α5β1 integrin [1]): 0.9 nM
B1: MOR04055 Fab (Fab, V domains shown)
VH: QVQLVESGGGLVQPGGSLRLSCAASGFTFSNYAMNWVRQAPGKGLEWVSRISYSGSDTYYADSVKGRFTISRDNSKNTLYLQMNSLRAEDTAVYYCAREGEFGFMYSTLVFDSWGQGTLVTVSS
VL: DIELTQPPSVSVAPGQTARISCSGDSIGEQYAHWYQQKPGQAPVLVIYDDNKRPSGIPERFSGSNSGNTATLTISGTQAEDEADYYCGSYTLTNTASVFGGGTKLTVLG

Kd (human α5β1 integrin [2]): 0.5 nM
B2: MOR04055 IgG (antibody, V domains shown)
VH: B1 VH
VL: B1 VL

IC50, XTT-proliferation assay on HUVEC (human α5β1 integrin [3]): 0.21 µg/ml and 4.3 nM
binding result [4]: no binding
B3: MOR04971 Fab (Fab, V domains shown)
VH: QVQLVESGGGLVQPGGSLRLSCAASGFTFSNYAMNWVRQAPGKGLEWVSAIHDNGHTYYPDSVKGRFTISRDNSKNTLYLQMNSLRAEDTAVYYCAREGEFGFMYSTLVFDSWGQGTLVTVSS
VL: B1 VL with G88S, L92Y, T93S, N94S, T95D

IC50, XTT-proliferation assay on HUVEC (human α5β1 integrin [3]): 11.2 µg/ml and 225 nM
Kd (human α5β1 integrin [1]): 7.5 nM
B4: MOR04624 Fab (Fab, V domains shown)
VH: QVQLVESGGGLVQPGGSLRLSCAASGFTFSSYGMSWVRQAPGKGLEWVSSISYSDSNTYYADSVKGRFTISRDNSKNTLYLQMNSLRAEDTAVYYCARGLGDYGHHHGLSGIFDYWGQGTLVTVSS
VL: DIQMTQSPSSLSASVGDRVTITCRASQGISSNLNWYQQKPGKAPKLLIYAASNLQSGPSRFSGSGSGTDFTLTISSLQPEDFAVYYCQQYSDQSYTFGQGTKVEIKR
notes: HuCAL GOLD monovalent Fab, kappa

IC50, transwell migration of HUVEC towards fibronectin (human α5β1 integrin [5]): 1.5 µg/mL
B5: MOR04975 IgG4-Pro (antibody, V domains shown)
VH: QVQLVESGGGLVQPGGSLRLSCAASGFTFSSYGMSWVRQAPGKGLEWVSGIRAKQSGYATDYAAPVKGRFTISRDNSKNTLYLGMNSLRAEDTAVYYCARGLGDYGHHHGLSGIFDYWGQGTLVTVSS
VL: B4 VL with R18N, V84T, S91E, D92F, Q93G, S94I, Y95Q

IC50, XTT-proliferation assay on HUVEC (human α5β1 integrin [3]): 0.06 µg/ml and 1.2 nM
binding result [4]: no binding
B6: MOR04974 Fab (Fab, V domains shown)
VH: B5 VH with G84Q
VL: B4 VL with V84T, S91A, D92S, Q93P, S94R, Y95Q

binding result [6]: no binding
Kd (human α5β1 integrin [2]): 3.1 nM
B7: MOR04624 IgG1 (antibody, V domains shown)
VH: B4 VH
VL: B4 VL
notes: Human IgG1 kappa (MorphoSys HuCAL IgG Vector Kit); also called IgG1 MOR04624

EC50, inhibition of HUVEC adhesion to fibronectin (human α5β1 integrin [7]): 0.4 µg/ml and 2.7 nM
binding result [8]: no binding (tested: 10 µg/mL)
B8: MOR04974 IgG1 (antibody, V domains shown)
VH: B5 VH with G84Q
VL: B4 VL with V84T, S91A, D92S, Q93P, S94R, Y95Q
notes: also called IgG1 MOR04974

IC50, transwell migration of HUVEC towards fibronectin (human α5β1 integrin [5]): 1 µg/mL
B9: MOR04974 IgG4-Pro (antibody, V domains shown)
VH: B5 VH
VL: B4 VL with Q6G, V84T, S91A, D92S, Q93P, S94R, Y95Q

IC50, transwell migration of HUVEC towards fibronectin (human α5β1 integrin [5]): 1 µg/mL
B10: MOR04977 IgG4-Pro (antibody, V domains shown)
VH: B5 VH with G50F, R52E, A53P, Q55W, S56R, Y58G, D61H, P65S, G84Q
VL: B4 VL with V84T, D92S, Q93N, S94P, Y95Q

IC50, XTT-proliferation assay on HUVEC (human α5β1 integrin [3]): 0.09 µg/ml and 1.9 nM
binding result [4]: no binding
B11: MOR04977 Fab (Fab, V domains shown)
VH: B5 VH with G50F, R52E, A53P, Q55W, S56R, Y58G, D61H, P65S, G84Q
VL: B4 VL with V84T, D92S, Q93N, S94P, Y95Q

IC50, XTT-proliferation assay on HUVEC (human α5β1 integrin [3]): 0.09 µg/ml and 1.8 nM
binding result [4]: no binding
B12: MOR04985 Fab (Fab, V domains shown)
VH: B5 VH with G84Q
VL: B4 VL

EC50, inhibition of HUVEC adhesion to fibronectin (human α5β1 integrin [7]): 0.4 µg/ml and 2.6 nM
binding result [6]: no binding
B13: MOR04977 IgG1 (antibody, V domains shown)
VH: B5 VH with G50F, R52E, A53P, Q55W, S56R, Y58G, D61H, P65S, G84Q
VL: B4 VL with V84T, D92S, Q93N, S94P, Y95Q

EC50, inhibition of HUVEC adhesion to fibronectin (human α5β1 integrin [7]): 0.5 µg/ml and 3.3 nM
binding result [6]: no binding
B14: MOR04985 IgG1 (antibody, V domains shown)
VH: B5 VH with G84Q
VL: B4 VL

IC50, XTT-proliferation assay on HUVEC (human α5β1 integrin [3]): 0.09 µg/ml and 1.8 nM
binding result [4]: no binding
B15: MOR04975 Fab (Fab, V domains shown)
VH: B5 VH with G84Q
VL: B4 VL with V84T, S91E, D92F, Q93G, S94I, Y95Q
notes: also called MQR04975

EC50, inhibition of HUVEC adhesion to fibronectin (human α5β1 integrin [7]): 0.33 µg/ml and 2 nM
binding result [6]: no binding
B16: MOR04975 IgG1 (antibody, V domains shown)
VH: B5 VH with G84Q
VL: B4 VL with V84T, S91E, D92F, Q93G, S94I, Y95Q

Reference: patent publication US20090081207A1 (published 2009)
